Test results published in article PMC6261512 (Protein expression and purification, 2018).

Target: the molecule itself
Assay: SEC

B1: MBP-5-HT3A-ICD chimera (maltose-binding protein and the intracellular domain of the mouse serotonin type 3A receptor) (domain or fragment, UniProt P23979 327-466, looked up)
chain: ETIFIVRLVHKQDLQRPVPDWLRHLVLDRIAWILCLGEQPMAHRPPATFQANKTDDCSGSDLLPAMGNHCSHVGGPQDLEKTPRGRGSPLPPPREASLAVRGLLQELSSIRHFLEKRDEMREVARDWLRVGYVLDRLLFR
  stoichiometry N: 5
